Measured values published in patent publication US20220380471A1 (US Dept. of Health and Human Services, published 2022).

T1: rat B7H3-His (rat, UniProt Q7TPB4 29-244, limits assumed)
T1 construct: not shown: His tag
T1 sequence (looked up): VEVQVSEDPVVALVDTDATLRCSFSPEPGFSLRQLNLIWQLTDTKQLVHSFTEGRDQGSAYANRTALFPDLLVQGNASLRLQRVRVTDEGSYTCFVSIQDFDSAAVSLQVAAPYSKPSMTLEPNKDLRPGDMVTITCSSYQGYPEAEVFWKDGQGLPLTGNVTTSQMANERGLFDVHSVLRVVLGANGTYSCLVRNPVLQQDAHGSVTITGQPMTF

T2: hB7H3-His (human, UniProt Q5ZPR3 29-461, limits assumed)
T2 construct: not shown: His tag
T2 sequence (looked up): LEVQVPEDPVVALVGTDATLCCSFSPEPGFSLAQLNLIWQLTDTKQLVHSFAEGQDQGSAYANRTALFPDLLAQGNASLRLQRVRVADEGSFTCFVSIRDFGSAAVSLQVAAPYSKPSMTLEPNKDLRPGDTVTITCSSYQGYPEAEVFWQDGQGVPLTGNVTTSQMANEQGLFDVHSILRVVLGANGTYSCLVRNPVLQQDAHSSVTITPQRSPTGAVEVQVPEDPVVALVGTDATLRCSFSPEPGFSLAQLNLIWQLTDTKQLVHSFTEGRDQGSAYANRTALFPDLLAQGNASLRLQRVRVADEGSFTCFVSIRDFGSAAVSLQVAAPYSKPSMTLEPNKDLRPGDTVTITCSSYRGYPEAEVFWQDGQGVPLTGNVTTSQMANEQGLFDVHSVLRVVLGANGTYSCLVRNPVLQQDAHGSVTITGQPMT

T3: recombinant human B7H3-Fc protein (human, UniProt Q5ZPR3 29-466, limits assumed)
T3 construct: 154 kDa non-reduced, 77 kDa reduced; also called hB7H3-Fc; not shown: Fc part
T3 sequence (looked up): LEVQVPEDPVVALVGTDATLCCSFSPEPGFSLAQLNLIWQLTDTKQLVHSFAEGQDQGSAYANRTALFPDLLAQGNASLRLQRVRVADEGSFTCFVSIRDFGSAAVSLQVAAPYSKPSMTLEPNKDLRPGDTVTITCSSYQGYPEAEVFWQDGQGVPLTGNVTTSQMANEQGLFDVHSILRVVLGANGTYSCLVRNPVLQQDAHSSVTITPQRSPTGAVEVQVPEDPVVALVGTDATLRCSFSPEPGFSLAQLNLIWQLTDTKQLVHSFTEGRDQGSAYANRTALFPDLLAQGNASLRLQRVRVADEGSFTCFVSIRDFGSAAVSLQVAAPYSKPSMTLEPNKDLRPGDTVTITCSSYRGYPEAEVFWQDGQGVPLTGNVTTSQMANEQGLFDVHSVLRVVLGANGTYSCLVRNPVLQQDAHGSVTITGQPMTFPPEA

T4: monkey B7H3-His (monkey)
T4 chain: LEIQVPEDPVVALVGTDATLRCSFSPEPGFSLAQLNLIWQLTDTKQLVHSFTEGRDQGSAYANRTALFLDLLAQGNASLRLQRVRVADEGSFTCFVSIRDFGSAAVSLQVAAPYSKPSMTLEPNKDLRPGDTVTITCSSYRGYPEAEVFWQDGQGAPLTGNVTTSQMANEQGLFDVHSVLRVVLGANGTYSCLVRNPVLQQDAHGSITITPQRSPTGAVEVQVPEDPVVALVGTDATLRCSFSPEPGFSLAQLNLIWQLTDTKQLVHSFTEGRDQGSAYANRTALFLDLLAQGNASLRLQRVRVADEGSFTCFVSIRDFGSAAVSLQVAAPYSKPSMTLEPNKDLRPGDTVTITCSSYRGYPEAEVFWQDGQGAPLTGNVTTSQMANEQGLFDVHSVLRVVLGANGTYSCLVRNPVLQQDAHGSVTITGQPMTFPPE

T5: B7H3 (CD276) on MC38-CD276+ cells
T5 construct: whole, on cells; MC38-CD276KO cells served as the negative control; also called MC38-B7H3+
T5 sequence (Q5ZPR3 1-534, species assumed, looked up): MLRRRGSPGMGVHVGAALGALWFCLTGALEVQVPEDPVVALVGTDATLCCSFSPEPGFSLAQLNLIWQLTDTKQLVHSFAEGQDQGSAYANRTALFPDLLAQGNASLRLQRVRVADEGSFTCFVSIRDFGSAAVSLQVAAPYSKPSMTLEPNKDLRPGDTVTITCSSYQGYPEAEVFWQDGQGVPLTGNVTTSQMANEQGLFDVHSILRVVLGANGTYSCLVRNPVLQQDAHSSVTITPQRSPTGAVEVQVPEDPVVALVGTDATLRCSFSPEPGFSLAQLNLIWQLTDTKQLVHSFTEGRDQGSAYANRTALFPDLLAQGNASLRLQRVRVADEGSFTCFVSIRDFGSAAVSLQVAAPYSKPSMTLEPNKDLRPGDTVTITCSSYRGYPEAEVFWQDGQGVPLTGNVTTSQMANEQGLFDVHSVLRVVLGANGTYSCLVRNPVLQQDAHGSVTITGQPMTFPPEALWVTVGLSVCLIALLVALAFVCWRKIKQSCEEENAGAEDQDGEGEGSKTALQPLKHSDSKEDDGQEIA

B1: RWC4 (VHH)
VHH: EVQLVESGGGSVQAGGSLRLSCVASEDSTSAMCMGWFRQAPGKEREGVACINPTGEVTWYGDSVKGRFTISRDTVKKIVYLQMNSLKPEDTAMYYCAARVTYGGDWSTDTDYEYWGQGTQVTVSS
notes: Camel VHH; tag not described; also called camel antibody RWC4
B2: RWG4 (VHH)
VHH: QVQLVQSGGGLVQPGGSLRLSCAASGFTFSVYWFYWVRQAPRQGLEWVSTIASNGSTYYSDSVKGRFTISRDNAKNTVYLQMNSLKPEDTAVYYCVSDPDYYSDYERAYKFWAQGTQVTVSS
notes: Camel VHH; tag not described; also called camel antibody RWG4
B3: RWB12 (VHH)
VHH: QVQLVESGGGSVQVGGSLRLSCAASGFTYNSYSVGWFRQAPGKEREGVAAINSGGSSTYYAASVKGRFTISRDNAKNTVYLQMNSLKPEDTAMYYCAARSPSPLTFQTRTLREDSYNYWGQGTQVTVSS
notes: Camel VHH; tag not described; also called camel antibody RWB12
B4: RWG8 (VHH)
VHH: DVQLVESGGGLVQPGGSLRLSCAASGFTFSRYWMGWFRQAPGKGVEWVSTINSGGGSTYYADSVKGRFTISRDNAKNTLYLQLNNLKTEDTAMYYCAKEQWRTGSRGQGTQVTVSS
notes: Camel VHH; tag not described; also called camel antibody RWG8

These binders were tested against Non-relevant antigen (assay: ELISA, purified VHH).
Summary of the method: (§1)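 Binding of the purified camel VHH nanobodies is given as the ELISA signal. The immobilised recombinant proteins included B7H3 fusion proteins and proteins other than B7H3. The nanobodies were isolated beforehand by phage panning on recombinant B7H3-Fc.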

ELISA signal	Binder
0.0719	B1
0.0541	B2
0.0495	B3
0.0562	B4

These binders were tested against T1, rat B7H3-His (assay: ELISA, purified VHH).
Summary of the method: as §1

ELISA signal	Binder
1.5	B2
0.0574	B3
0.0696	B4

Each binder was assayed against T2, hB7H3-His (assay: ELISA, purified VHH).
Summary of the method: as §1

ELISA signal	Binder
2.44	B1
2.55	B2
0.686	B3
1.04	B4

The binders below were run against T3, recombinant human B7H3-Fc protein (assay: ELISA, purified VHH).
Summary of the method: as §1

ELISA signal	Binder
2.02	B1
2.54	B2
0.568	B3
0.641	B4

Biological target: T4, monkey B7H3-His
Test: ELISA, purified VHH
Summary of the method: as §1

ELISA signal	Binder
0.288	B1
1.81	B2
0.164	B3
0.117	B4

These binders were tested against T5, B7H3 (CD276) on MC38-CD276+ cells (assay: flow cytometry on MC38-CD276+ cells, VHH at 10 ug/ml).

Positive rates [%]	Binder
98.3	B1
85.8	B2
4.16	B3
4.68	B4

What follows are binders tested against T3, recombinant human B7H3-Fc protein (assay: ELISA; row B7H3-Fc; well 3 of 3).
Summary of the method: as §1

ELISA reading (name not given)	Binder
1.95	B1
0.952	B3
1.87	B4

Each binder was assayed against T5, B7H3 (CD276) on MC38-CD276+ cells (assay: flow cytometry on MC38-CD276+ cells, VHH at 2 ug/ml).

Positive rates [%]	Binder
84.7	B1
23.4	B2
0.18	B3
0.31	B4
